Experimental data: article PMC6503952, “Nuclear actin interactome analysis links actin to KAT14 histone acetyl transferase and mRNA splicing” (Journal of Cell Science, 2019)

Molecular target: Rabbit skeletal muscle actin (rabbit, UniProt P68135 1-377)
Experiment: pull-down; purified His–KAT14 or His–GST (from a lysate) held on Ni-NTA agarose beads, washed with up to 500 mM NaCl, then incubated with a 4-fold amount of rabbit skeletal muscle actin in G-buffer (5 mM Tris-HCl pH 7.5, 0.2 mM ATP, 0.2 mM CaCl2, 0.5 mM DTT) for 3 h at +4°C; western blot
Conditions: both partners purified

B1: Recombinant human His-KAT14 (enzyme)
chain: MDSSIHLSSLISRHDDEATRTSTSEGLEEGEVEGETLLIVESEDQASVDLSHDQSGDSLNSDEGDVSWMEEQLSYFCDKCQKWIPASQLREQLSYLKGDNFFRFTCSDCSADGKEQYERLKLTWQQVVMLAMYNLSLEGSGRQGYFRWKEDICAFIEKHWTFLLGNRKKTSTWWSTVAGCLSVGSPMYFRSGAQEFGEPGWWKLVHNKPPTMKPEGEKLSASTLKIKAASKPTLDPIITVEGLRKRASRNPVESAMELKEKRSRTQEAKDIRRAQKEAAGFLDRSTSSTPVKFISRGRRPDVILEKGEVIDFSSLSSSDRTPLTSPSPSPSLDFSAPGTPASHSATPSLLSEADLIPDVMPPQALFHDDDEMEGDGVIDPGMEYVPPPAGSVASGPVVGVRKKVRGPEQIKQEVESEEEKPDRMDIDSEDTDSNTSLQTRAREKRKPQLEKDTKPKEPRYTPVSIYEEKLLLKRLEACPGAVAMTPEARRLKRKLIVRQAKRDRGLPLFDLDQVVNAALLLVDGIYGAKEGGISRLPAGQATYRTTCQDFRILDRYQTSLPSRKGFRHQTTKFLYRLVGSEDMAVDQSIVSPYTSRILKPYIRRDYETKPPKLQLLSQIRSHLHRSDPHWTPEPDAPLDYCYVRPNHIPTINSMCQEFFWPGIDLSECLQYPDFSVVVLYKKVIIAFGFMVPDVKYNEAYISFLFVHPEWRRAGIATFMIYHLIQTCMGKDVTLHVSASNPAMLLYQKFGFKTEEYVLDFYDKYYPLESTECKHAFFLRLRR
notes: KAT14, human; also called His-tagged KAT14; source: Sf9 (MultiBac baculovirus), purified (Ni-NTA, Superdex 200)
Question: Does B1 bind?
Answer: Result: binds
